# B1: neurotrypsin: human neurotrypsin, trypsin-like serine protease cloned from AG1523 cells (protein)
# chain: FDSVLNDSLHHSHRHSPPAGPHYPYYLPTQQRPPRTRPPPPLPRFPRPPRALPAQRPHALQAGHTPRPHPWGCPAGEPWVSVTDFGAPCLRWAEVPPFLERSPPASWAQLRGQRHNFCRSPDGAGRPWCFYGDARGKVDWGYCDCRHGSVRLRGGKNEFEGTVEVYASGVWGTVCSSHWDDSDASVICHQLQLGGKGIAKQTPFSGLGLIPIYWSNVRCRGDEENILLCEKDIWQGGVCPQKMAAAVTCSFSHGPTFPIIRLAGGSSVHEGRVELYHAGQWGTVCDDQWDDADAEVICRQLGLSGIAKAWHQAYFGEGSGPVMLDEVRCTGNELSIEQCPKSSWGEHNCGHKEDAGVSCTPLTDGVIRLAGGKGSHEGRLEVYYRGQWGTVCDDGWTELNTYVVCRQLGFKYGKQASANHFEESTGPIWLDDVSCSGKETRFLQCSRRQWGRHDCSHREDVSIACYPGGEGHRLSLGFPVRLMDGENKKEGRVEVFINGQWGTICDDGWTDKDAAVICRQLGYKGPARARTMAYFGEGKGPIHVDNVKCTGNERSLADCIKQDIGRHNCRHSEDAGVICDYFGKKASGNSNKESLSSVCGLRLLHRRQKRIIGGKNSLRGGWPWQVSLRLKSSHGDGRLLCGATLLSSCWVLTAAHCFKRYGNSTRSYAVRVGDYHTLVPEEFEEEIGVQQIVIHREYRPDRSDYDIALVRLQGPEEQCARFSSHVLPACLPLWRERPQKTASNCYITGWGDTGRAYSRTLQQAAIPLLPKRFCEERYKGRFTGRMLCAGNLHEHKRVDSCQGDSGGPLMCERPGESWVVYGVTSWGYGCGVKDSPGVYTKVSAFVPWIKSVTKL
# Legend:
# latent PDGF-CC = target: T1, latent PDGF-CC (Homo sapiens, UniProt Q9NRA1); assay: Cotransfection assay in COS-1 cells: protease plus full-length PDGF-C; assay type: cell-based; settings: COS-1 conditioned medium, immunoblot, 22 kDa species under reducing conditions
# T1 construct: cotransfected with full-length PDGF-C (Li et al, 2000), full-length PDGF-D (Bergsten et al, 2001); expressed in transfected cells; host or cells: COS-1 cells
# Excerpt: (§1) A cotransfection assay was established to identify serine proteases able to cleave and activate latent PDGF-CC. Expression plasmids encoding the relevant enzymes and full-length PDGF-C were cotransfected into COS-1 cells, and aliquots of the conditioned media from the transfectants were subjected to SDS-PAGE and immunoblotting using antibodies to the growth factor domain of PDGF-C. […] As a specificity control, the ability of tPA and NT to use full-length PDGF-DD as the substrate in the cotransfection assay was analysed. […] One difference in the latter results, as compared with the results from the cotransfection assay, was that purified tPA generated a second intermediate species of 32 kDa using latent PDGF-CC as the substrate. It is possible that this intermediate is the result of digestion by plasmin contamination in the tPA preparation, since the size of the fragment is similar to that of plasmincleaved PDGF-CC previously reported (Li et al, 2000). […]
# To test the endogenous expression of PDGF-CC, subconfluent AG1523 cells and primary fibroblast cultures were cultured in serum-free DMEM overnight. […] In the case of the primary cultures, total protein concentration was measured and normalized (Bradford, 1976). […]
# latent PDGF-DD = target: T2, latent PDGF-DD (Homo sapiens, UniProt Q9GZP0); assay: Cotransfection assay in COS-1 cells: protease plus full-length PDGF-D; assay type: cell-based; settings: COS-1 conditioned medium, immunoblot
# T2 construct: cotransfected with full-length PDGF-C (Li et al, 2000), full-length PDGF-D (Bergsten et al, 2001); expressed in transfected cells; host or cells: COS-1 cells
# Excerpt: as §1, with “substrate.” for “substrate. It is possible that this intermediate is the result of digestion by plasmin contamination in the tPA preparation, since the size of the fragment is similar to that of plasmincleaved PDGF-CC previously reported (Li et al, 2000).”
# To test the endogenous expression of PDGF-CC, subconfluent AG1523 cells and primary fibroblast cultures were cultured in serum-free DMEM overnight. […] In the case of the primary cultures, total protein concentration was measured and normalized (Bradford, 1976). […] PDGF-C and PDGF-D were detected by immunoblotting using affinity-purified polyclonal rabbit antibodies against PDGF-C (Li et al, 2000) and PDGF-D (Bergsten et al, 2001), respectively. The His6-tagged proteins were detected using an anti-His monoclonal antibody (C-terminal, Invitrogen). tPA was detected using sheep polyclonal antibodies against human tPA (ab9030, Abcam).
# T1 sequence (Q9NRA1 23-345): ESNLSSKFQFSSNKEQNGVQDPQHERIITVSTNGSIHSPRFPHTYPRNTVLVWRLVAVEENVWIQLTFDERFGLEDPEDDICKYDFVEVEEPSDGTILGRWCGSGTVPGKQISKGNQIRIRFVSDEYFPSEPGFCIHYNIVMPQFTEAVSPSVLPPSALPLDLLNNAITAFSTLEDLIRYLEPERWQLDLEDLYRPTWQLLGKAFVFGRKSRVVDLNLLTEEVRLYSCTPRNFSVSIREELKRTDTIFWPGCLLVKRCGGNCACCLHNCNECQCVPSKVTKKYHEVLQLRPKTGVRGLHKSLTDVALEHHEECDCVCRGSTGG
molecule,measurement,setting,value
B1,cleavage of latent PDGF-CC by the coexpressed protease,latent PDGF-CC,lacked proteolytic activity toward latent PDGF-CC
same,cleavage and activation of latent PDGF-DD by the coexpressed protease,latent PDGF-DD,neither of the two enzymes was able to cleave and activate latent PDGF-DD

# From patent US20060104978A1, “Methods and compositions for PDGF-C activation and inhibition” (LUDWIG INSTITUTE FOR CANCER RESEARCH, priority 2003, published 2006)
